Data on two substances can be found in article PMC5291249.

Holding throughout (test): cross-linking; glutaraldehyde cross-linking (0.01-0.5%, 0.025% chosen as optimal) of recombinant p53 in solution without DNA, 25°C, Tris or HEPES buffer pH 7.5, 100 mM NaCl, then 4-12% MOPS SDS-PAGE (coomassie, silver stain or immunoblot)
A general note: A western blot detects proteins with antibodies after separation by electrophoresis.

The target in assay [1] is murine p53 mutant with the double substitution M340Q/L344R (murine) (UniProt P02340).
For assay [2], the target named is recombinant murine p53 (murine) (UniProt P02340).
Assay [3] shares this target. This is another data set of the same source.

Several values for one entry are separate records, joined by “and”; a condition that tells them apart may be missing. Equal entries are not always repeated. Where two headings read alike, the source gives them in different places.

For orientation: stoichiometry N means the number of molecules, sites or subunits per partner or assembly. As to “murine p53 mutant with the double substitution M340Q/L344R (from UniProt P02340 1-390) (natural protein)”, the stoichiometry N in assay [1] was 2 and 4. For the substance “recombinant murine p53 (from UniProt P02340 1-390) (natural protein)”, the stoichiometry N turned out to be 8 in assay [2] and 4 in assay [3].
